The Kd is a measure of binding affinity in units of concentration. One may read the IC50 as the point on the concentration scale where inhibition reaches its midpoint. Read a low IC50 as higher potency.

The target of one test is HLA-A*32:01. Description: IEDB peptide-MHC binding, purified MHC/competitive/radioactivity; filed as Kd, often an IC50 or EC50 that approximates it; ≥ and ≤ were set here for values at or beyond the usual limits of such assays.
In the next test the target is HLA-B*44:03. The test is described as above.
For the next test, the target named is HLA-A*26:01. The description is as above.
The target of another test is HLA-A*30:02. Described as above.
Test [1] concerns the target HLA-A*02:01. Description: IEDB peptide-MHC binding, purified MHC/competitive/fluorescence; ≥ and ≤ were set here for values at or beyond the usual limits of such assays.
The target of test [2] is HLA-B*40:01. Description: IEDB peptide-MHC binding, purified MHC/direct/fluorescence; filed as Kd, often an IC50 or EC50 that approximates it; ≥ and ≤ were set here for values at or beyond the usual limits of such assays.
The next test has as its target HLA-B*44:02. As to the kind of experiment: IEDB peptide-MHC binding, purified MHC/competitive/radioactivity; filed as Kd, often an IC50 or EC50 that approximates it; ≥ and ≤ were set here for values at or beyond the usual limits of such assays.
In a further test the target is HLA-B*35:01. Described as above.
For another test, the target named is HLA-B*53:01. The description is as above.
In test [3] the target is HLA-A*02:01. As to the kind of experiment: IEDB peptide-MHC binding, purified MHC/competitive/fluorescence; filed as Kd, often an IC50 or EC50 that approximates it; ≥ and ≤ were set here for values at or beyond the usual limits of such assays.
The target in another test is HLA-B*51:01. Description: IEDB peptide-MHC binding, purified MHC/competitive/radioactivity; filed as Kd, often an IC50 or EC50 that approximates it; ≥ and ≤ were set here for values at or beyond the usual limits of such assays.
The target of test [4] is HLA-B*40:01. The test is described as above.
In a further test the target is HLA-A*01:01. The description is as above. The following applies: source organism: Dengue virus 3 Sri Lanka/1266/2000.
[5] abbreviates: source organism: Vaccinia virus WR.
Setting [6] is: source organism: Dengue virus 1 Brazil/97-11/1997.
[7] abbreviates: source organism: Dengue virus 4 Philippines/H241/1956.
Setting [8] is: source organism: Dengue virus 2 Jamaica/1409/1983.
The mark [9] stands for this setting: source organism: Sudan ebolavirus.
Where [10] appears, read: source organism: Dengue virus 3 Martinique/1243/1999.
Setting [11] is: source organism: Zaire ebolavirus.
Setting [12] is: source organism: Dengue virus 1 Singapore/S275/1990.

Regarding STTRGALIF, the equilibrium dissociation constant (Kd) with HLA-A*32:01 (setting [5]) was 296 nM. With SEIQLTDYG, in the test with HLA-B*44:03 (setting [6]), the Kd was found to be 441 nM. As to EVPFCSHHF, the dissociation constant (Kd) with HLA-A*26:01 (setting [7]) was determined as 6630 nM. For SAVPTEWFPT, the Kd with HLA-A*32:01 (setting [7]) is ≥ 34000 nM. With RNPKNENDQY, the dissociation constant (Kd) in the test with HLA-A*30:02 (setting [8]) was found to be 20.7 nM.

For the sequence DFLLRRWGG, in the test with HLA-A*02:01 [1] (setting [9]), the IC50 was found to be 56400 nM. In the case of ELIMKDGRKL, the Kd with HLA-A*26:01 (setting [10]) stood at 12500 nM. Turning to VRLHPLART, the IC50 with HLA-A*02:01 [1] (setting [11]) was ≥ 331000 nM.

Take QEHDCLQIV: the Kd with HLA-B*40:01 [2] (source organism: Mammarenavirus juninense) was 1470 nM. For the sequence SEAVNDSRFW, the equilibrium dissociation constant (Kd) in the test with HLA-B*44:02 (setting [7]) stood at 11.4 nM; with HLA-B*44:03 (setting [7]), 41.4 nM. For TPEGIIPSM, the Kd with HLA-B*35:01 (setting [8]) is 7.57 nM; in the test with HLA-B*53:01 (setting [8]), 252 nM.

For NYADRRWCFD, in the test with HLA-A*32:01 (setting [8]), the dissociation constant (Kd) is ≥ 52300 nM.

The sequence VLPFDIKKL showed a dissociation constant (Kd) with HLA-A*02:01 [3] (setting [5]) of 525 nM.

For the sequence MAISGDDCVV, the Kd with HLA-B*51:01 (setting [8]) was 4860 nM.

Regarding MEVDRSEAK, the Kd with HLA-B*44:02 (setting [6]) amounted to 7940 nM.

Regarding VPLLAIGCY, the Kd with HLA-B*35:01 (setting [8]) is 168 nM. With EDMLAVWNRV, the dissociation constant (Kd) with HLA-A*32:01 (setting [8]) was found to be 219 nM. With AGILARWSSF, the results for the dissociation constant Kd with HLA-B*44:02 (setting [6]) and with HLA-A*32:01 (setting [6]) were 5110 nM and 2820 nM, respectively.

Consider EEIAVQNWLA, for which, in the test with HLA-B*44:03 (setting [8]), the Kd was 431 nM. On to EELGDGLAM, for which the Kd with HLA-B*44:03 (setting [6]) stood at 76.6 nM; with HLA-B*40:01 [4] (setting [6]), 221 nM. Turning to AGPPKAENT, in the test with HLA-A*02:01 [1] (setting [11]), the IC50 stood at 66600 nM. Consider QERGKSLLF, for which the equilibrium dissociation constant (Kd) with HLA-B*44:03 (setting [6]) was determined as 117 nM. In the case of LENDMKFTV, the dissociation constant (Kd) in the test with HLA-B*40:01 [4] (setting [12]) was found to be 124 nM. LVCGLRQLA displayed a concentration for half-maximal inhibition (IC50) with HLA-A*02:01 [1] (setting [9]) of 7660 nM. For IPPTAGVLA, the Kd with HLA-B*51:01 (setting [10]) was found to be 6140 nM. With GVVTTSGTY, the Kd worked out at 169 nM with HLA-A*30:02 (setting [6]) and 403 nM in the test with HLA-A*26:01 (setting [6]).

For the sequence ILGPDCCIE, in the test with HLA-A*02:01 [1] (setting [9]), the IC50 came to 28100 nM. On to MHNQNALVC, for which, in the test with HLA-A*02:01 [1] (setting [9]), the half-maximal inhibitory concentration (IC50) is ≥ 92000 nM. Take ILLKIVTQF: the Kd in the test with HLA-A*32:01 (source organism: Dengue virus 4 Dominica/814669/1981) was 412 nM. With LLCPAGHAV, the dissociation constant Kd with HLA-A*02:01 [3] (source organism: Hepatitis C virus subtype 1b) was determined as 12.4 nM. The sequence also showed an IC50 in the test with HLA-A*02:01 [1] (source organism: Hepacivirus hominis) of 35400 nM. As for SEKNETWKL, the Kd was 153 nM with HLA-B*44:02 (setting [6]) and 113 nM in the test with HLA-B*40:01 [4] (setting [6]). For the sequence STEGRRVGV, the half-maximal inhibitory concentration (IC50) in the test with HLA-A*02:01 [1] (setting [9]) was ≥ 210000 nM. AAVLMLVAHY: the Kd with HLA-A*30:02 (setting [6]) turned out to be 508 nM.

As to LVQYIKFIF, the equilibrium dissociation constant (Kd) in the test with HLA-A*32:01 (setting [5]) came out at 19.8 nM.

For AEIQPQWIA, the values for the dissociation constant (Kd) with HLA-B*44:02 (setting [7]) and in the test with HLA-B*44:03 (setting [7]) were 26.4 nM and 1230 nM, respectively. FLQSPPIRE had an IC50 with HLA-A*02:01 [1] (setting [9]) of 38000 nM. Turning to LATGPVLTLW, the dissociation constant Kd with HLA-B*53:01 (setting [7]) was determined as 44.8 nM. Regarding VESWEEIPYL, the Kd with HLA-B*40:01 [4] (source organism: Dengue virus 2 Peru/IQT2913/1996) came out at 52.8 nM. LAWIPYFGP displayed an IC50 with HLA-A*02:01 [1] (setting [11]) of 17800 nM. Regarding ELTGYGTVTM, the Kd with HLA-A*26:01 (setting [8]) came to 8470 nM. Regarding LEENVEVEIW, the Kd with HLA-B*44:02 (setting [8]) amounted to 124 nM; in the test with HLA-B*44:03 (setting [8]), 367 nM. As for KEENLVKSMV, the equilibrium dissociation constant (Kd) with HLA-B*44:03 (setting [12]) was ≥ 22100 nM. In the case of LENIIVPGL, in the test with HLA-B*40:01 [2] (source organism: Mycobacterium tuberculosis), the Kd was 71 nM. For the sequence VHQIFGSAY, the equilibrium dissociation constant (Kd) in the test with HLA-A*30:02 (setting [10]) came out at 9950 nM. CESCVYNMM: the Kd turned out to be 180 nM in the test with HLA-B*44:02 (setting [7]) and 201 nM with HLA-B*40:01 [4] (setting [7]). As to FEKQLGQIM, the Kd was 2550 nM with HLA-B*44:02 (setting [6]) and 558 nM in the test with HLA-B*40:01 [4] (setting [6]). Take VTLNISSKF: in the test with HLA-A*32:01 (setting [5]), the Kd was found to be 10.6 nM.

Take RTIYNETSI: the dissociation constant (Kd) with HLA-A*32:01 (setting [5]) was determined as 1.03 nM. Take LPEIEDEVF: the dissociation constant Kd in the test with HLA-B*35:01 (setting [6]) turned out to be 88.1 nM; in the test with HLA-B*53:01 (setting [6]) it was 1240 nM.

With VMCSISLTY, in the test with HLA-A*32:01 (setting [5]), the Kd came out at 10.8 nM. On to EVEDYGFGMF, for which the dissociation constant (Kd) in the test with HLA-A*26:01 (setting [7]) turned out to be 72.1 nM. As to KTDWLPMTV, the Kd in the test with HLA-A*01:01 turned out to be 56.5 nM. Take MLYGIAQKI: the Kd in the test with HLA-A*32:01 (source organism: Vaccinia virus Copenhagen) came to 12.4 nM. Take TTTGEIGAI: the dissociation constant (Kd) with HLA-A*26:01 (setting [10]) was determined as 5260 nM.
